Measured values reported in US20230226096A1 (Orna Therapeutics, Inc., priority 2020, published 2023).

B1: Farmington virus (nucleic acid)
DNA: ACGACGCATAAGCAGAGAAACATAAGAGACTATGTTCATAGTCACCCTGTATTCATTATTGACTTTTATGACCTATTATTAGACCCTTCACGGGTAAATCCTTCTCCTTGCAGTTCTCGCCAAGTACCTCCAAAGTCAGAACG
B2: Dianke virus (nucleic acid)
DNA: TGTTTTCAACCATAATACTACTACTACAAGTATAAAACCCCGTCCGTCTGTCGGAGACGCTAAACTCTGACCACCAATCTAGCCACATCAGTTGCTTAAAGAACCTCTTGAGACACTCTCCCACTTAACATCTTTTAGGAATCTTCGATGCTACAACAACTTGGCTAGTGAACAATAAATCCGTACAATTCACAGTTGTAAGAGGCCATAGGTCCAGACTTTGAAAGGTTTGTTTCTATTGTTACAAATACTTAGATTAACAGAGGCTATTTAATAGTGCTCATCACGTTAACAGAGTAACCTTGTGCAATAGTATGAGCTTGTTGTAAAACGTCTTGATACGACACC
B3: Enterovirus AN12 (nucleic acid, listed as Enterovirus sp.)
DNA: TACCGCTGCACCAGTGAGCTGGTACGCTAGTACCTTCGCACGGAGTAGATGGCATCCCCCACCCCGTAACTTAGAAGCAAAGTACACATCTGGCCAATAGTGGCGCTGCATCCAGCCGCGCAACGGTCAAGCACTTCTGTTTCCCCGGTCCGCAAGGGTCGTTATCCGCCCAGTCCACTACGGAAAGCCTACTAACCATTGAAGCTATCGAGAGGTTGCGCTCGGCCACGACCCCGGTGGTAGCTCTGAGTGATGGGGCTCGCAAACACCCCCGTGGTAACACGGATGCTTGCCCGCGCGTGCACTCGGGTTCAGCCTATTGGTTGTTCACCTCAACATAGTGTAAATGGCCAAGAGCCTACTGTGCTGGATTGGTTTTCCTCCGGAGCCGTGAATGCTGCTAATCCCAACCTCCGAGCGTGTGCGCACAATCCAGTGTTGCTACGTCGTAACGCGTAAGTTGGAGGCGGAACAGACTACTTTCGGTACTCCGTGTTTCTTTTGTTTTATTTTGAATTTTATGGTGACAATTGCTGAGATTTGCGAATTAGCGACTCTACCGCTGAACATTGCCCTGTACTACCTAATCGCATTTCACAAAACCTCAGAGATACCAAGCTCTTACATTGATCTGCTTGTTTTCCTGAATCTCAAATATAAATTGGAACAAGCAAA
B4: Dolphin morbillivirus (nucleic acid, listed as Morbillivirus sp.)
DNA: ACCAGACAAAGCTGGCTAGGGGTAGAATAACAGATAATGATAAATTATCATACTTAGGATTAATGATCCTATCAATTGGCACAGGATTTGGATAAAGGTTCACAGTC
modifications: chemistry not fully specified; the letters are possibly those of the target site
B5: Human rhinovirus 1 (nucleic acid, listed as Rhinovirus sp.)
DNA: TTAAAACTGGGTGTGGGTTGTTCCCACCCACACCACCCAATGGGTGTTGTACTCTGTTATTCCGGTAACTTTGTACGCCAGTTTTTCCCTCCCCTCCCCATCCTTTTACGTAACTTAGAAGTTTTAAATACAAGACCAATAGTAGGCAACTCTCCAGGTTGTCTAAGGTCAAGCACTTCTGTTTCCCCGGTTGATGTTGATATGCTCCAACAGGGCAAAAACAACAGATACCGTTATCCGCAAAGTGCCTACACAGAGCTTAGTAGGATTCTGAAAGATCTTTGGTTGGTCGTTCAGCTGCATACCCAGCAGTAGACCTTGCAGATGAGGCTGGACATTCCCCACTGGTAACAGTGGTCCAGCCTGCGTGGCTGCCTGCGCACCTCTCATGAGGTGTGAAGCCAAAGATCGGACAGGGTGTGAAGAGCCGCGTGTGCTCACTTTGAGTCCTCCGGCCCCTGAATGCGGCTAACCTTAAACCTGCAGCCATGGCTCATAAGCCAATGAGTTTATGGTCGTAACGAGTAATTGCGGGATGGGACCGACTACTTTGGGTGTCCGTGTTTCACTTTTTCCTTTATTAATTGCTTATGGTGACAATATATATATTGATATATATTGGCATC
B6: Avian infectious bronchitis virus (nucleic acid)
DNA: ACTTAAGATAGATATTAATATATATCTATTACACTAGCCTTGCGCTAGATTTTTAACTTAACAAAACGGACTTAAATACCTACAGCTGGTCCTCATAGGTGTTCCATTGCAGTGCACTTTAGTGCCCTGGATGGCACCTGGCCACCTGTCAGGTTTTTGTTATTAAAATCTTATTGTTGCTGGTATCACTGCTTGTTTTGCCGTGTCTCACTTTATACATCTGTTGCTTGGGCTACCTAGTGTCCAGCGTCCTACGGGCGTCGTGGCTGGTTCGAGTGCGAGGAACCTCTGGTTCATCTAGCGGTAGGCGGGTGTGTGGAAGTAGCACTTCAGACGTACCGGTTCTGTTGTGTGAAATACGGGGTCACCTCCCCCCACATACCTCTAAGGGCTTTTGAGCCTAGCGTTGGGCTACGTTCTCGCATAAGGTCGGCTATACGACGTTTGTAGGGGGTAGTGCCAAACAACCCCTGAGGTGACAGGTTCTGGTGGTGTTTAGTGAGCAGACATACAATAGACAGTGACAAC
B7: Goat torovirus (nucleic acid, listed as Torovirus sp.)
DNA: GTACTTACAAGCGGGTTAAACCGCCCTCCGGAACGGTTACAACCCCCTCCCGAACGTGCGCTTGACGTGACTGGTTCTCAGTCTGGCTTTCTGAGAAATACTCCAGGGTTGTATCCCACCATCTTGACCTCTGGTCATTTTGGTAACACCATAACCAAACAAACTCTACACACCTAACCCACCTCCAGCTTGCTGCAGGCCTTTTGGACTAAACGGGTTTAGGTGTTTTGTGACCAACTCGTCTACCCACCTCCAGTTTTACTGCAGGCCTTTTTGGACTAAACGGCTTTAGACTTTTGTGGTTAGTTTTTAACTACCCACTGTTTAGCCGCCAACCTGATTTTCATTGTTGTAAAATTTTGTGTTTATACACTATTTTCATACGGTTGGCAGTTTGTTTGGTTGTTTGCACAGTTTTTGTTGATACCAATTTTTACTGTGCTTTTAGTGTATTCTGCTAAGGCTGTATTTTACATACTTAGTTTGGTTGAAGCAATTTTTACAACATTTATATTGTTTTTGATTTCTAAGGTAAAGAGTCTTAGGAAACACCATAGACGCCATTCTTGTGGTGTCTAGTTCCAACTAATCTGGCAAACAAGTACCAAGTCATTGACTCACTTTGGAGTGAGACTTACGAGTACCAATTTGCCTATTTCGGACATCCATATAAAG
B8: Grapevine associated narnavirus-1 (nucleic acid, listed as Narnavirus sp.)
DNA: GCCCGGGGGGTGCAGTCCTGTGAAAGGGTCTGCACCATACTATATATGTATATGATTACATCCCAAAAGGCGACTTCGTTCAGGTTTTAAATCTGACGTAGGTCCAGTAAATAAGCATGTCAAAACATGTAAGTTTATCCTGTAATCTACTCTCATAAGATGAGATAAGATGATATTGCAGTTCCCATGTAAATAAATCCATTATGAATTCATTCATATAAGGTAGAAGTGGTAACTATGGTTGAAACATTAATATAAAACGGTCATTTTGCATGAACGTCATTAAGGAACTGGCATACCAATGTCTATTTAGTGACTATGATATTTAGAGTATCCCTTATATTAATTAACAATTATTCCTTTTAGCATATCATCCGACAACAAATTTTAAAAGAAGAAATATTACTCATTAAAA
B9: Feline infectious peritonitis virus (nucleic acid)
DNA: ACTTTTAAAGTAAAGTGAGTGTAGCGTGGCTATAACTCTTCTTTTACTTTAACTAGCCTTGTGCTAGATTTGTCTTCGGACACCAACTCGAACTAAACGAAATATTTGTCTCTCTATGAAACCATAGAAGACAAGCGTTGATTATTTCACCAGTTTGGCAATCACTCCTAGGAACGGGGTTGAGAGAACGGCGCACCAGGGTTCCGTCCCTGTTTGGTAAGTCGTCTAGTATTAGCTGCGGCGGTTCCGCCCGTCGTAGTTGGGTAGACCGGGTTCCGTCCTGTGATCTCCCTCGCCGGCCGCCAGGAGA
B10: Guereza hepacivirus (nucleic acid, listed as Hepacivirus sp.)
DNA: CACTCAATACTACACTCCGCATTTGGGGAGAAGCGCTGGCGTTCGCGGAACCGCGTTAACCATACGCGTAGTACGAGTGCGACAGACCCCGGTGCTACTGGTGGTAGCGAGACACGAGCCGAAGTCTGTGGGGGGAACTCCACTTAGAGGGCATGCCCGGGCGTAGGCTTCTGAGTTGGGATGGGCCCCAACTTGGCCCCTGAGTGGGGGGGTGTTACGACCTGATAGGGTGCGGGCTGGCGCCTACCACTTTCCAGTCGTACATGAGTC
B11: Megirivirus A LY (nucleic acid)
DNA: TTCGGGACACTGGATGGGCGACTTGGTGGGGCTGCCACTCTATCTTGACCTTTCGTTACTGACTTTCGGATCTCTGACTCCTCCTTGTCTCTTGCGTTTGGTCCACGGACGGACTAATTGGAATGTTTACTGGCTAAGCCTCGTTCTGAAATACCCTAGCCAATGGGTTGTAGTAGGATCCTGGTGTTTCCATTAAACCTCTTCCGACCATAGTAGCTAGAGTTATGGCTGTGTAGGATGTGGGTAAGACCGCTTTTTGCGTATCTCCCACAAGACACCGGATTATGGATGTGTCCGCTGGATAAGGCTCGAAACCTCCCAACTGAAGGTGGTGCTGAAATATTGCAAGCCTAGGTTGTGTAGAGGCAAGTAGATGCCTGCCGCGACATTCGTCTTCCGCCCTTTTGGGTTAGTAGTGTACCTACATGGACGTGGGGCTGGGAATCCCCACCTTGCATAACACTGGTTGATAGACCTGCGGCTGGTCAAGTTACTATGGTATAACCAGTTGAAATGGCT
B12: Enterovirus sp. isolate CPML (nucleic acid, listed as Enterovirus sp.)
DNA: ACTCTGGTATCACGGTACCTTTGCACGCCTATTTTATACCCCTTCCCCATCGTAACTTAGAAGCAACAAACAAACTGCCCAATAGCAGCACAACACCCAGTTGTGTTAGGGGCAAGCACTTCTGTTTCCCCGGAAGGGTCTGACGGTATGCTGTACCCACGGCAGAAGTATGACCTACCGTTAACCGGCCATGTACTTCGAGAAGCCTAGTACCATTATGAAGGTTGATTGATGTTACGCTCCCCAGCAACCCCAGCTGGTAGTTCTGGTCGATGAGTCTCGGCATTCCCCACGGGCGACCGTGGCCGAGGCTGCGTTGGCGGCCAGCCTACACCATACGGTGTAGGACGTCAAGATACTGACATGGTGTGAAGAGCCTATTGAGCTACGTGGTAGTCCTCCGGCCCCTGAATGCGGCTAATCCTAACTCCGGAGCATCCGCCAGTAAGCCCACTGGAAGGGTGTCGTAATGCGAAAGTCTGGAGCGGAACCGACTACTTTGGGTGTCCGTGTTTCCTGTTTTACTTATTGTTTGGCTGCTTATGGTGACAACTTATAGTTATCATCATAAGCTACTTGGTCTTGCCAACCGGAGAATTATTTGGTTATTTGTTGGTTTCATAAACCTACAGTCGTATTTTCCTGTCTTATTAATTGTTCTCAAAATTAACAACA

What follows are molecules tested on HEK293 cells. Conditions: luminescence from secreted Gluc in supernatant 24 hours after transfection of HEK293 cells; circular RNA encoding Gluc with the named IRES (UTR truncated to 675 nt).
Format: cell-based, human
Work on B1 yielded an Expression of 1.22E+05.
For B2, the Expression was 1.35E+05.
In the case of B3, the Expression is reported as 3.87E+06.
Work on B4 yielded an Expression of 1.22E+05.
B5 was tested, and the Expression was 7.40E+07.
Molecule B6 has an Expression of 2.84E+05.
B7 gave an Expression of 1.19E+05.
For B8, the Expression was 1.30E+05.
Molecule B9 has an Expression of 1.35E+05.
B10 was tested, and the Expression was 1.38E+05.
With B11 the Expression was 1.80E+06.
B12 was tested, and the Expression was 6.83E+07.
